# Reference: the supplement of paper PMC10567573
# B1: NCK2 (parent)
# chain: YVERKNSLKKGSLVKNLKDTLGLG
# Variants of: B1
# Test: protein stability index of a GFP-peptide fusion (GPS, HEK-293T) (PSI 1-6); higher = more stable
# Settings: c terminus: a fixed tail appended
# 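Further: lentivirally expressed fusions sorted by FACS into six bins by GFP to DsRed ratio, PSI derived from sequencing read proportions per bin multiplied by bin number.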
row,Variant,protein stability index
1,R4I,1.81
2,R4C,1.83
3,R4H,2.6
4,R4K,2.46
5,R4D,2.67
6,R4A,2.23
7,R4Q,2.2
8,R4Y,1.33
9,R4L,1.57
10,R4W,1.57
11,R4P,2.2
12,R4T,1.78
13,R4M,1.62
14,R4S,2.26
15,R4G,2.19
16,R4E,2.42
17,V14Q,2.74
18,V14N,2.44
19,V14F,1.96
20,V14W,1.89
21,V14C,2.08
22,V14H,1.84
23,V14M,2.46
24,V14P,2.3

row,Variant,protein stability index
1,V14I,2.35
2,V14G,2.04
3,D19K,1.91
4,D19G,1.92
5,D19N,2.84
6,D19Y,1.49
7,D19T,1.83
8,D19W,2.35
9,D19H,1.47
10,D19M,2.6
11,D19S,2.16
12,D19C,2.11
13,D19F,2.24
14,D19A,2
15,D19Q,2.21
16,D19V,1.78
17,D19E,2.43
18,D19L,1.4
19,V2K,3.67
20,V2T,3.44
21,V2F,2.44
22,V2A,3.09
23,V2C,2.47
24,V2Q,3.39

row,Variant,protein stability index
1,V2I,2.84
2,V2H,2.66
3,V2R,3.41
4,V2M,2.81
5,V2E,4.17
6,V2N,3.59
7,V2S,2.94
8,V2P,3.81
9,L17F,1.87
10,L17E,2.85
11,L17T,2.79
12,L17K,3
13,L17C,2.55
14,L17R,2.58
15,L17S,2.41
16,L17H,2.34
17,L17W,1.69
18,S7H,2.02
19,S7V,1.94
20,S7T,2.16
21,S7D,2.57
22,S7C,2.22
23,S7A,2.29
24,S7W,3.27

row,Variant,protein stability index
1,S7E,2.9
2,S7M,1.88
3,S7N,2.07
4,S7L,2.43
5,S7F,2.66
6,L21E,2.74
7,L21S,2.51
8,L21M,2.64
9,L21Y,2.41
10,L21G,2.49
11,L21P,2.39
12,L21I,2.42
13,L21N,2.33
14,L21A,2.4
15,L21V,2.25
16,L21K,2.32
17,L21F,2.18
18,L21H,2.3
19,L21R,1.98
20,L21C,2.71
21,L21Q,2.3
22,N6I,2.39
23,N6K,2.67
24,N6D,2.74

row,Variant,protein stability index
1,N6H,2.61
2,N6S,2.1
3,N6E,2.85
4,N6M,2.29
5,N6T,1.94
6,N6P,2.28
7,N6C,1.73
8,N6R,2.25
9,N6V,1.58
10,N6L,1.1
11,N6Y,1.64
12,N6G,2.38
13,N6W,2.32
14,N6Q,2.53
15,L23Y,1.94
16,L23M,2.7
17,L23H,2.02
18,L23D,2.76
19,L23N,2.9
20,L23S,3.21
21,L23E,2.86
22,L23V,2.57
23,L23W,2.44
24,L23Q,2.33

row,Variant,protein stability index
1,L23T,2.64
2,L23P,2.97
3,L23G,2.94
4,L23I,2.37
5,L23K,2.71
6,L23C,2.53
7,L23R,2.89
8,T20H,1.75
9,T20K,2.37
10,T20I,3.27
11,T20F,1.75
12,T20Y,1.88
13,T20P,2.21
14,T20E,2.17
15,T20V,1.97
16,T20C,1.82
17,T20S,2.66
18,T20L,2.07
19,T20Q,2.64
20,T20M,2
21,N16F,2.69
22,N16I,2.18
23,N16H,2.28
24,N16Q,1.97

row,Variant,protein stability index
1,N16G,2.3
2,N16W,1.68
3,N16M,1.3
4,N16K,2.04
5,N16D,2.29
6,N16Y,1.89
7,N16S,2.16
8,N16A,2.33
9,N16T,2.41
10,N16C,2.1
11,N16P,2.61
12,G24E,3.21
13,G24Y,1.67
14,G24I,1.8
15,G24R,2.19
16,G24L,1.28
17,G24P,2.28
18,G24D,2.8
19,G24W,1.97
20,G24K,2.13
21,G24H,2.43
22,G24N,1.98
23,G24F,1.48
24,G24A,2.36

row,Variant,protein stability index
1,G24V,1.67
2,Y1I,3.03
3,Y1M,3.64
4,Y1G,3.92
5,Y1F,1.81
6,Y1K,3.86
7,Y1R,3.18
8,Y1S,3.3
9,Y1W,2.29
10,Y1H,4.01
11,Y1E,4.06
12,Y1P,3.8
13,Y1C,3.41
14,Y1A,3.59
15,Y1L,3.28
16,Y1V,3.41
17,Y1Q,4.01
18,L13E,2.87
19,L13Y,2.52
20,L13Q,2.64
21,L13G,2.41
22,L13P,3.05
23,L13N,2.44
24,L13K,2.38

row,Variant,protein stability index
1,L13T,2.63
2,L13A,3.01
3,L13F,1.86
4,L13C,1.97
5,L13I,2.13
6,L13R,1.99
7,K9R,2.54
8,K9T,2.17
9,K9F,3.15
10,K9V,2.48
11,K9Y,2.28
12,K9W,2.37
13,K9D,2.37
14,K9L,3.07
15,K9S,2.84
16,K9N,2.32
17,K9M,1.92
18,K9G,2.39
19,G11F,2.69
20,G11V,2.42
21,G11E,2.72
22,G11I,1.68
23,G11H,2.02
24,G11C,2.09

row,Variant,protein stability index
1,G11L,1.87
2,G11W,1.93
3,G11D,2.44
4,G11R,2.32
5,G11S,2.43
6,S12F,2.53
7,S12P,2.31
8,S12C,2.13
9,S12M,1.75
10,S12Y,2.19
11,S12W,2.17
12,S12T,2.01
13,S12N,2.63
14,S12H,1.98
15,S12G,2.07
16,S12R,2.22
17,S12D,2.79
18,S12I,2.46
19,S12K,2.71
20,S12V,2.38
21,G22Y,2.33
22,G22L,1.51
23,G22K,2.09
24,G22T,2.37

row,Variant,protein stability index
1,G22I,1.9
2,G22Q,2.31
3,G22S,2.13
4,G22V,1.97
5,G22M,2.23
6,G22N,2.46
7,G22R,1.97
8,G22F,2.86
9,G22H,2.01
10,K5I,1.99
11,K5Y,2.84
12,K5M,1.79
13,K5T,2.02
14,K5Q,2.39
15,K5N,2.4
16,K5S,2.24
17,K5H,2.13
18,K5R,2.52
19,K5L,1.51
20,K5V,2.2
21,K5F,2.58
22,K5C,1.75
23,K18P,2.56
24,K18C,2.94

row,Variant,protein stability index
1,K18L,2.08
2,K18S,2.07
3,K18R,2.46
4,K18G,1.84
5,K18M,1.72
6,K18I,2.84
7,K18H,2.6
8,K18Q,2.48
9,K18D,2.39
10,K18T,2.65
11,K18E,2.46
12,K18Y,2.41
13,K18V,2.42
14,K18N,2.3
15,E3S,2.23
16,E3D,1.89
17,E3R,2.52
18,E3Q,1.96
19,E3A,1.66
20,E3T,1.78
21,E3Y,1.63
22,E3I,2.1
23,E3L,2.07
24,E3M,2.11

row,Variant,protein stability index
1,E3W,1.96
2,E3P,1.65
3,E3K,2.23
4,E3G,1.41
5,E3H,1.72
6,E3F,2.01
7,E3C,1.83
8,K10N,1.83
9,K10S,2.31
10,K10H,1.82
11,K10M,1.94
12,K10V,2.04
13,K10L,2.17
14,K10F,2.48
15,K10R,2.17
16,K10Y,1.68
17,K10W,1.78
18,K10I,1.89
19,K10D,2.56
20,K10C,2.29
21,K10E,2.29
22,K10A,2.11
23,L8F,2.33
24,L8Q,2.88

row,Variant,protein stability index
1,L8C,2.41
2,L8E,2.96
3,L8T,2.58
4,L8D,2.92
5,L8A,2.42
6,L8R,2.09
7,L8N,2.55
8,L8V,2.16
9,L8G,3.27
10,L8M,2.57
11,K15C,2.12
12,K15M,2.47
13,K15D,2.7
14,K15H,2.23
15,K15W,1.98
16,K15N,2.41
17,K15V,1.94
18,K15L,2.36
19,K15R,1.81
20,K15S,2.26
21,K15F,1.69
22,K15Q,2
